The values below come from PMC10866564 (Science Advances, 2024).

Holding throughout (assay): SEC-MALS
The target in one data set is 6×His-SYP-3 (C. elegans) (UniProt O62238).
The data set “SEC-MALS” deals with the molecule itself.
A further data set has as its target T1, 6×His-SYP-3 (C. elegans, UniProt O62238 1-224).
T1 sequence: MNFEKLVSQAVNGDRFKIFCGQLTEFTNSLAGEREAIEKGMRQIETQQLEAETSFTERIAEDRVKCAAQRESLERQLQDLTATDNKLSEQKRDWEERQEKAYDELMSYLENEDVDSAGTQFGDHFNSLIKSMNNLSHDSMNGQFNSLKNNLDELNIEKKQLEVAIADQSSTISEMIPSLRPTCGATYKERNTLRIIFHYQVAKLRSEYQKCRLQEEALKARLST

In the case of “SYP-1 (recombinant, untagged) (natural protein)”, the stoichiometry N (copies of each protein in the complex) in the data set with 6×His-SYP-3 (C. elegans) was determined as 4.
On to “SYP-5 (recombinant, untagged) (natural protein)”, for which the stoichiometry N (copies of each protein in the complex) with 6×His-SYP-3 (C. elegans) turned out to be 4.

B1: 6×His-SKR-1^WT (natural protein)
chain: MADQKKVSEAAKEREIKISSSDNEIFLVPRNVIRLSNTINTLLMDLGLDDEEGTNAEPIPVQNVTASILKKVISWCNHHHSDPISTEDSDNREKRTDDIGSWDVEFLKVDQGTLFELILAANYLDIKGLLDVTCKTVANMIKGKSPEEIRRTFNIKNDFTPEEEEQIRKENAWCED
By stoichiometry N is commonly meant a count of units in the complex or per binding partner. For B1, the “stoichiometry N” value in the data set “SEC-MALS” stood at 2.

B2: 6×His-SKR-1^I155A,W173A (natural protein)
chain: MADQKKVSEAAKEREIKISSSDNEIFLVPRNVIRLSNTINTLLMDLGLDDEEGTNAEPIPVQNVTASILKKVISWCNHHHSDPISTEDSDNREKRTDDIGSWDVEFLKVDQGTLFELILAANYLDIKGLLDVTCKTVANMIKGKSPEEIRRTFNAKNDFTPEEEEQIRKENAACED
B2: the “stoichiometry N” value in the data set “SEC-MALS” is 2.

B3: SKR-1 (recombinant, untagged) (natural protein)
chain: MADQKKVSEAAKEREIKISSSDNEIFLVPRNVIRLSNTINTLLMDLGLDDEEGTNAEPIPVQNVTASILKKVISWCNHHHSDPISTEDSDNREKRTDDIGSWDVEFLKVDQGTLFELILAANYLDIKGLLDVTCKTVANMIKGKSPEEIRRTFNIKNDFTPEEEEQIRKENAWCED
Regarding B3, the “stoichiometry N” value with 6×His-SYP-3 is 4 copies of each protein in the complex.

B4: SYP-4 (recombinant, untagged) (natural protein)
chain: MSFPTLQVRPNEKNPKVLRCHEFLRQSNQLVERNMINTEGRKMLAKLLTKMVSEAKGIYALDERRAELAKSGKLQEKLKSAYQTSLTVMEDRLHIAELSRQVQEKKLTVQQKYYECDDLRKSVQETNTEARRVQEINEQRLVDTTRATEELIVKSASILKNLENSSDVHKLRAMEEEKRILEEVVEGLRDQKKCLADDIRTKKATLKAESKKSFEKTVIECAKHYKLHQSLMPKLDKSKRSLETLKDEEENRRICGSLSLDETMQFDRSFILASMDKTNKPEKAVQQLTSKSSEVSITPQISETAKSSFSKEPIPTQHPMEVGEEPVIEHSAEESVHIEPPNVTEIREVVPQITIQPTRQDSVVQRDAEELDTSAVPSPQPESILDEPEEEEEELSNHENHADQSMDVMEVDQEVPEESPMEVGEQEEIEQPSVFKDILATEQAALSQEQEPEIVEKQADNDVQFVDDQQVGAQLDVEDEEEVMSENGSNKSNNFSFNFFGNSKGTSAGEGGGEGNFDFNFDGIGAGDDGSNNGGSTGDLDFLNYDGEDEGKGSGNTQSDPFGFASNGNAAGGGGDGSFNFNFDGDGEGGATSGAGGNSTSFFNF
Regarding B4, in the data set with 6×His-SYP-3, the “stoichiometry N” value was 4 copies of each protein in the complex.

B5: SYP-2 (recombinant, untagged) (natural protein)
chain: MNSAHRSSLKKRPGPQDDRRVSFASPVSSSQKTAAVTVAAQTKQPAKAKNLRTMHSTPKKSKPAHDVADIISLVSKQSDILDDVSEIEHKMIKQAKMTQDLTMELANSIERIANMALAESKLSDQMEKQSKKLISLEGKTKELVEKANNWSKTLENRVDARSHHSTCLNDVQAAIKIINNAKINNDGFSEDFSAHYDKLLDLVETLEPWADKL
As for B5, the “stoichiometry N” value with 6×His-SYP-3 is 4 copies of each protein in the complex.
